Changes are numbered by the printed parent chain.
T1: mouse MCAM-Fc fusion protein (mouse; human, UniProt Q8R2Y2 24-563)
T1 construct: extracellular domain; Made in house; also called mMCAM-Fc; 650-conjugated mouse MCAM-Fc; not shown: human IgG1 (Fc part of the fusion)
T1 sequence (looked up): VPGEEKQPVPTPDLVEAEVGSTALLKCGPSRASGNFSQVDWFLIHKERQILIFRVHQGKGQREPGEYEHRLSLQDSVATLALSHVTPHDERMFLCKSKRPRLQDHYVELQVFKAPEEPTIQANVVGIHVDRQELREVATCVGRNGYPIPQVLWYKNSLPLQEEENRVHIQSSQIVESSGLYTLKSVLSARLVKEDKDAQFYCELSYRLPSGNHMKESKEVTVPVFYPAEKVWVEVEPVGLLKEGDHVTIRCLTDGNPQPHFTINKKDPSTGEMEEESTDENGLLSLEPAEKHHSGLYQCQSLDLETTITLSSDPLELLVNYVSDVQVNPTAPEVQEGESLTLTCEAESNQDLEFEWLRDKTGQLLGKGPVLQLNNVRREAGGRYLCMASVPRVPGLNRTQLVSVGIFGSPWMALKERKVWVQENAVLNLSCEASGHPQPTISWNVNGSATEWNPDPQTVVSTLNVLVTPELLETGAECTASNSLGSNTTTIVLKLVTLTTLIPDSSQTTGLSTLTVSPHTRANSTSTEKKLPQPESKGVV

T2: human LAMA4 G domain (LG1-5) displayed on 293 cells (human, UniProt Q16363 830-1821)
T2 construct: the vector's tags and membrane anchor are not written here; also called LAMA4-displaying human 293 cells; full length
T2 sequence: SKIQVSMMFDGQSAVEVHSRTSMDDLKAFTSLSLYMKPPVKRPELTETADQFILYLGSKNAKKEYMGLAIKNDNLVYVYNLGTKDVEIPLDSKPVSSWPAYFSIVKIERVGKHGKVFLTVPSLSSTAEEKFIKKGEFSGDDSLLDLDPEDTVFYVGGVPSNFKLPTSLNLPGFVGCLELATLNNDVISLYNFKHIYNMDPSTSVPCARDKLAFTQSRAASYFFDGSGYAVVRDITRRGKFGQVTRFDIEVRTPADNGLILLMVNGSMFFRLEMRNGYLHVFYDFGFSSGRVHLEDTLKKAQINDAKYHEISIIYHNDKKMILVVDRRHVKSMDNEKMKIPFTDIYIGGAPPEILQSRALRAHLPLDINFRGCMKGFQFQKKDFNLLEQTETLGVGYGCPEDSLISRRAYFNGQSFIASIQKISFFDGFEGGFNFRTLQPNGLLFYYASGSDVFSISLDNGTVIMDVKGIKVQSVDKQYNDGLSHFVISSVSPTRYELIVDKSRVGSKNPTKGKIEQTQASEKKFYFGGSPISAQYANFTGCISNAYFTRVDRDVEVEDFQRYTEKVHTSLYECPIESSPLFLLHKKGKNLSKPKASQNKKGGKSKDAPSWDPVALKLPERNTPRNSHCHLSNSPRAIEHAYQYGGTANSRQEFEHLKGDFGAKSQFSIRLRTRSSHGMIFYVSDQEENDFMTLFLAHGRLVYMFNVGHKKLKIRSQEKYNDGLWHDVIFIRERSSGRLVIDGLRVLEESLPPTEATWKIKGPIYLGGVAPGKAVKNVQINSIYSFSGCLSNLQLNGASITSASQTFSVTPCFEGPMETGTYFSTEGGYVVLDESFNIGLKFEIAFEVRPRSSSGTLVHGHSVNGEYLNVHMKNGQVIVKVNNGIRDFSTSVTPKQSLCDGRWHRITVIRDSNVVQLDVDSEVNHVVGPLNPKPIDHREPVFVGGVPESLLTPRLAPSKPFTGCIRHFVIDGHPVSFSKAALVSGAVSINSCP

T3: human LAMA4 LG1-3 modules displayed on 293 cells (human, UniProt Q16363 830-1430)
T3 construct: pDisplay construct on 293 cells; vector tags and anchor not written here
T3 sequence: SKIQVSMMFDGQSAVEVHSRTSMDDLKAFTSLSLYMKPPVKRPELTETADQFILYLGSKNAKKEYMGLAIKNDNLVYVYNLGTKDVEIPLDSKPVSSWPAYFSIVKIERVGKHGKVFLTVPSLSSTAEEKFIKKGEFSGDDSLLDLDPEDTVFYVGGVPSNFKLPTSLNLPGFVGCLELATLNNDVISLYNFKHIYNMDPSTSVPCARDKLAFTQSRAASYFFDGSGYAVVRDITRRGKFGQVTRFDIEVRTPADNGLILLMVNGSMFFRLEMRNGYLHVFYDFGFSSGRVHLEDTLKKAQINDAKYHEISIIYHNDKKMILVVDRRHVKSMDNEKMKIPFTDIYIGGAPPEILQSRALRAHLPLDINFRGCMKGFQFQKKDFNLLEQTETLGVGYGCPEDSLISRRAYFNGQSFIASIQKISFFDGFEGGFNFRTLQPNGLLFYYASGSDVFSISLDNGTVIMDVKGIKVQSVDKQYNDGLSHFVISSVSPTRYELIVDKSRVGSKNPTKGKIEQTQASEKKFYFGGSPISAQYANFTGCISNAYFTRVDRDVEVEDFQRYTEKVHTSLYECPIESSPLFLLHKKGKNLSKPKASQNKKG

B1: human LAMA4 LG4-5 modules displayed on 293 cells (ligand)
chain: RNSHCHLSNSPRAIEHAYQYGGTANSRQEFEHLKGDFGAKSQFSIRLRTRSSHGMIFYVSDQEENDFMTLFLAHGRLVYMFNVGHKKLKIRSQEKYNDGLWHDVIFIRERSSGRLVIDGLRVLEESLPPTEATWKIKGPIYLGGVAPGKAVKNVQINSIYSFSGCLSNLQLNGASITSASQTFSVTPCFEGPMETGTYFSTEGGYVVLDESFNIGLKFEIAFEVRPRSSSGTLVHGHSVNGEYLNVHMKNGQVIVKVNNGIRDFSTSVTPKQSLCDGRWHRITVIRDSNVVQLDVDSEVNHVVGPLNPKPIDHREPVFVGGVPESLLTPRLAPSKPFTGCIRHFVIDGHPVSFSKAALVSGAVSINSCP
notes: pDisplay construct on 293 cells; vector tags and anchor not written here
B2: 19C12 variant H1+ChiL (antibody, V domains shown)
VH: QVQLQQSGAELVKPGASVKISCKASGYAFSTYWMNWVKQAPGEGLEWIGQIYPGDGDTNYNGKFKGRVTLTADKSTSTAYMELSSLRSEDTAVYFCARSDGYYDYWGQGTTVTVSS
VL: NIVLTQSPASLAVSLGQRATISCRASESVDSYGTSFMHWYQQKPGQPPKLLICLASSLESGVPARFSGSGSRTDFTLTIDPVEADDAATYYCQQNNEDPPTFGAGTKLELKR
notes: Humanized heavy chain version 1 (Hu19C12VHv1) paired with the chimeric light chain; Human constant regions not specified
B3: 19C12 variant H2+ChiL (antibody, V domains shown)
VH: B2 VH with I20V, K38R, E43Q, L70I
VL: B2 VL
notes: Humanized heavy chain version 2 (Hu19C12VHv2) paired with the chimeric light chain; Human constant regions not specified
B4: H2L5 (antibody, V domains shown)
VH: B2 VH with I20V, K38R, E43Q, L70I
VL: DIVLTQSPASLAVSLGERATISCRASESVDSYGTSFMHWYQQKPGQPPKLLISLASSLESGVPARFSGSGSGTDFTLTISPLQAEDVATYYCQQNNEDPPTFGQGTKLEIK
notes: also called VHv2/VLv5; humanized 19C12 antibody H2L5; copies: 2 + 2
B5: H3L3 (antibody, V domains shown)
VH: B2 VH with Q1E, I20V, K38R, E43Q, L70I
VL: B4 VL with D1N, S53C, G72R, S80D, L82V, Q83E, V87A, Q104A
notes: also called VHv3/VLv3; humanized 19C12 antibody H3L3; copies: 2 + 2

What was measured:
[1] = molecular target: T1, mouse MCAM-Fc fusion protein; assay: flow cytometry on 293 cells displaying LAMA4 G-domain variants; % binding
Source text: LGde1 has a full-length G domain (i.e., LG1-5) with LG1 deleted, LGde2 has a full-length G domain with LG2 deleted, and LGde3 has a full-length G domain with LG3 deleted. Recombinant MCAM-Fc protein was able to specifically bind 293 cells expressing LAMA4 variants LG1-5, LG1-3, and LGde 1 (LG23), but not 293 cells expressing LAMA 4 variants LG4-5, LGde2 (LG13), or LGde3 (LG12).

[2] = molecular target: T2, human LAMA4 G domain (LG1-5) displayed …; assay: flow cytometry on 293 cells displaying LAMA4 G-domain variants, anti-human-650 secondary antibody; MFI
Experimental: (§1) The 19C12 variants chimeric 19C12, H1+chiL, and H2+chiL, and buffer alone were tested for their ability to block the binding of LAMA4 to its ligand MCAM (as shown in FIG. 11) and to bind LAMA4-displaying cells (full length, LG1-3, LG4-5, or untransfected control) (as shown in FIG. 12). […] To test LAMA4 binding capacity, serially diluted antibodies were pre-incubated with LAMA4-displaying human 293 cells, followed by anti-human-650 secondary antibody incubation. Fluorescent signal was assessed via flow cytometric analyses and plotted as mean fluorescence intensity (MFI).

[3] = molecular target: T3, human LAMA4 LG1-3 modules displayed on …; assay: as above
Experimental: as §1

[4] = molecular target: B1; assay: as above
Experimental: as §1

[5] = molecular target: T4, recombinant laminin 411 (human, UniProt P07942 22-1786; P11047 34-1609, limits assumed); assay: flow cytometric blocking assay; antibody pre-incubated with 650-labeled laminin 411; blocked partner: human MCAM on CHO cells; MFI
T4 construct: also called LAMA4 in complex with its gamma1 and beta1 chains
Experimental: as §1
Following two washes with FACS buffer (1% FBS in PBS), cells were resuspended with 650-conjugated anti-pan-laminin antibody (1:1000; Novus Biologicals) and incubated for 20 min at 4° C., and washed again. Cells were analyzed for pan-laminin reactivity by flow cytometry using standard procedures.

[6] = molecular target: T2, human LAMA4 G domain (LG1-5) displayed …; assay: flow cytometry on LAMA4-displaying 293 cells, anti-human-650 secondary antibody; MFI (binding experiment by paragraph 395 and by the plot; the legend paragraph 38 calls it blocking)
Experimental: (§2) Position L49 of the 19C12 variable light chain was substituted with other amino acids, such as I, T, A, M, Q, or E (see Table 6) because they may confer improved stability relative to substitution to a cysteine. The 19C12 cysteine replacement variants were tested for their ability to bind LAMA4-displaying cells (FIG. 13) and to block the binding of LAMA4 to its ligand MCAM (FIG. 14). To test LAMA4 binding capacity, serially diluted antibodies were pre-incubated with LAMA4-displaying human 293 cells, followed by anti-human-650 secondary antibody incubation. […] Fluorescent signal was assessed via flow cytometric analyses and plotted as mean fluorescence intensity (MFI). The 19C12 cysteine replacement variants retain their MCAM blocking and LAMA4 binding activity to varying degrees.

[7] = molecular target: T4, recombinant laminin 411; assay: flow cytometric blocking assay; antibody pre-incubated with 650-labeled laminin 411; blocked partner: human MCAM on CHO cells; MFI (blocking experiment by paragraph 395 and by the 411 / no 411 controls on the sheet; the legend paragraph 39 calls it binding)
Experimental: as §2

T4 sequence (chain, as listed by the source limits assumed, chain 1 of 3): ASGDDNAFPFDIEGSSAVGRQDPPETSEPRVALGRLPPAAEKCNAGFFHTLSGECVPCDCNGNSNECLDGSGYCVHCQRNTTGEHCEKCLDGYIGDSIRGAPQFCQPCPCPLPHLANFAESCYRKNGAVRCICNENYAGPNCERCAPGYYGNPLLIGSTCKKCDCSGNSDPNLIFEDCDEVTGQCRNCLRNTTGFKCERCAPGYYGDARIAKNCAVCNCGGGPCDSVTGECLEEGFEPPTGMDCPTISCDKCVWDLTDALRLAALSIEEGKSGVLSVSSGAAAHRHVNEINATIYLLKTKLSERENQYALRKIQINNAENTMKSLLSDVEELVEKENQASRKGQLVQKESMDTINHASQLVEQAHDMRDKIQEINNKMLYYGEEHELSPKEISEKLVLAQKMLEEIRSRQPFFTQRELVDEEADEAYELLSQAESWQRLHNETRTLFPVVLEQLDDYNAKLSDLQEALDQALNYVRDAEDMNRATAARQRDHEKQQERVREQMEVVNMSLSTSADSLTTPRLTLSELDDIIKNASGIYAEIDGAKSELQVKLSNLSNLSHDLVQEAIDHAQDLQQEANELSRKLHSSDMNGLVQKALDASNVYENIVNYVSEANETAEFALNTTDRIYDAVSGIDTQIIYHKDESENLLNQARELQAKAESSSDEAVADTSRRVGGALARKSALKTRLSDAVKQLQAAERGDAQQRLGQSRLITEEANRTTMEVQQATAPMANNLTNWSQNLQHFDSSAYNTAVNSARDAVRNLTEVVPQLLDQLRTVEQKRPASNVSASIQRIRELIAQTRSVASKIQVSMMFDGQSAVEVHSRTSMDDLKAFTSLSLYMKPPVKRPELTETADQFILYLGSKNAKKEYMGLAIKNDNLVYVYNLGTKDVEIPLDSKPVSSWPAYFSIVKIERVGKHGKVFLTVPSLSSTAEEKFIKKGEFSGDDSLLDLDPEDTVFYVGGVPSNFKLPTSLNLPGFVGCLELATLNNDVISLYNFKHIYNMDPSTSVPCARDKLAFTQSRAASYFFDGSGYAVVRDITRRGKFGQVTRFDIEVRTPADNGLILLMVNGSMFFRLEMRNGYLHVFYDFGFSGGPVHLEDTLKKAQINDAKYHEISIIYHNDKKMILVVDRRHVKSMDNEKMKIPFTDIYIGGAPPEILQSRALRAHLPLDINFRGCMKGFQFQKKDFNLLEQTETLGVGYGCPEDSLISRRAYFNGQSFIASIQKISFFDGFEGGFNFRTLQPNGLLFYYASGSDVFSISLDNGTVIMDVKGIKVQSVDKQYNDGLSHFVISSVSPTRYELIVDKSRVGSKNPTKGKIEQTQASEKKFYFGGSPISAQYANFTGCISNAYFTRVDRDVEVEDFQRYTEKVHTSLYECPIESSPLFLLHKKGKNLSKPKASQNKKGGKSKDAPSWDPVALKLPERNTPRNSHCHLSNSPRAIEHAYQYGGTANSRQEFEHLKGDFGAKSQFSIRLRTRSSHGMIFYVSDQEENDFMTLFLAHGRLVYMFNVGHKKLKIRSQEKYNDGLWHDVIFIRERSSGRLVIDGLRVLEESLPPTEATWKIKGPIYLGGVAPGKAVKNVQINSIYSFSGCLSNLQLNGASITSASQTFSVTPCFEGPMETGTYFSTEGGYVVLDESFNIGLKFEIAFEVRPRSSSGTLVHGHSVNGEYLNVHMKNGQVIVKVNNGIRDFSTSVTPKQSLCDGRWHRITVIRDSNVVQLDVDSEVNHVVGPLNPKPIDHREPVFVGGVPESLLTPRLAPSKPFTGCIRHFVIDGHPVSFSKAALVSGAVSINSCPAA
T4 sequence (P07942 22-1786 limits assumed, chain 2 of 3): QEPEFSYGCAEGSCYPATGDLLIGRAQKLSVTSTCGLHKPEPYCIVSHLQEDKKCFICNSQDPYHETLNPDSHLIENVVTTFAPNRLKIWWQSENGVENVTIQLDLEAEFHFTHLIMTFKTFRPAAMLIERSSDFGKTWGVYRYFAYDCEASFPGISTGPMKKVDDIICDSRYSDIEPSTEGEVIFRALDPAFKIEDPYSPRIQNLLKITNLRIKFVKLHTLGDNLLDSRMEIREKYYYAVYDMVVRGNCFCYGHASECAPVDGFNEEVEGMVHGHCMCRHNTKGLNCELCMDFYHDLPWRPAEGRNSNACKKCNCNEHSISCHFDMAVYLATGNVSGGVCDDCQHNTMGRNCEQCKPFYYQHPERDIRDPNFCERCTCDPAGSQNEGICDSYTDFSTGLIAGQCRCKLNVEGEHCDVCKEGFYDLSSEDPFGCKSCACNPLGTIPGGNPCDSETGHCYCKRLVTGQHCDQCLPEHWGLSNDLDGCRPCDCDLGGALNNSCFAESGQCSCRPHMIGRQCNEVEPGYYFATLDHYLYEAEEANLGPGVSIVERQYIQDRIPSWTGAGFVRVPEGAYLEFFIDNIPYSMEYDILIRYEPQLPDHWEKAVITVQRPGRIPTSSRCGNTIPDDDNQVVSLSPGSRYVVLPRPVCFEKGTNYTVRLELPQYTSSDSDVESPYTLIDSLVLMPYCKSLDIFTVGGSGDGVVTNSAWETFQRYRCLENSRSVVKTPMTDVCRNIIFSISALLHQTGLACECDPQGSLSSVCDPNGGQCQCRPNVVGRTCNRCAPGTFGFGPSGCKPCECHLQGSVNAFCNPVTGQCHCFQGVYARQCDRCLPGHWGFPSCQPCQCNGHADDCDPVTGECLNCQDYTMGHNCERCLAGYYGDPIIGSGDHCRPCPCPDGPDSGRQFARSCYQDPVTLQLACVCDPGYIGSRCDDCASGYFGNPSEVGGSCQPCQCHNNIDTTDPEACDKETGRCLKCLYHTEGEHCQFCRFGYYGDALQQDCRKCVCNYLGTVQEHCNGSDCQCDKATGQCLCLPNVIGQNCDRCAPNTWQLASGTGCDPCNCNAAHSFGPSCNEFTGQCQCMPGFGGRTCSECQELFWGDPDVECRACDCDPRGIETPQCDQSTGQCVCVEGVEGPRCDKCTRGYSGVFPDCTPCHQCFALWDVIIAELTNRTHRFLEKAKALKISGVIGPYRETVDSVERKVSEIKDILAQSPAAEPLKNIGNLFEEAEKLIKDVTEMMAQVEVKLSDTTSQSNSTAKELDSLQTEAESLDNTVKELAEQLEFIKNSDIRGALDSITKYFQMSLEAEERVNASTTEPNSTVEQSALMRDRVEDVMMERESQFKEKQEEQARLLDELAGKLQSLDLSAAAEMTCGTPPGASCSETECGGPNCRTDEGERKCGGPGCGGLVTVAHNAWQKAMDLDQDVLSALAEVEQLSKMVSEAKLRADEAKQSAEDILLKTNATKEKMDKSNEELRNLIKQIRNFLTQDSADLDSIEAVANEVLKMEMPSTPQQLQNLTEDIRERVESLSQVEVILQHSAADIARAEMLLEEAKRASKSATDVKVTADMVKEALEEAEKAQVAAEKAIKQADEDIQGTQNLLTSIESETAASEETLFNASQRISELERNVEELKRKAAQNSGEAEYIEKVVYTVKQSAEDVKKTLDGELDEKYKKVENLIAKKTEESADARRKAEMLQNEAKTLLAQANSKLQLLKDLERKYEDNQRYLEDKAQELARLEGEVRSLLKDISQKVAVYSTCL
T4 sequence (P11047 34-1609 limits assumed, chain 3 of 3): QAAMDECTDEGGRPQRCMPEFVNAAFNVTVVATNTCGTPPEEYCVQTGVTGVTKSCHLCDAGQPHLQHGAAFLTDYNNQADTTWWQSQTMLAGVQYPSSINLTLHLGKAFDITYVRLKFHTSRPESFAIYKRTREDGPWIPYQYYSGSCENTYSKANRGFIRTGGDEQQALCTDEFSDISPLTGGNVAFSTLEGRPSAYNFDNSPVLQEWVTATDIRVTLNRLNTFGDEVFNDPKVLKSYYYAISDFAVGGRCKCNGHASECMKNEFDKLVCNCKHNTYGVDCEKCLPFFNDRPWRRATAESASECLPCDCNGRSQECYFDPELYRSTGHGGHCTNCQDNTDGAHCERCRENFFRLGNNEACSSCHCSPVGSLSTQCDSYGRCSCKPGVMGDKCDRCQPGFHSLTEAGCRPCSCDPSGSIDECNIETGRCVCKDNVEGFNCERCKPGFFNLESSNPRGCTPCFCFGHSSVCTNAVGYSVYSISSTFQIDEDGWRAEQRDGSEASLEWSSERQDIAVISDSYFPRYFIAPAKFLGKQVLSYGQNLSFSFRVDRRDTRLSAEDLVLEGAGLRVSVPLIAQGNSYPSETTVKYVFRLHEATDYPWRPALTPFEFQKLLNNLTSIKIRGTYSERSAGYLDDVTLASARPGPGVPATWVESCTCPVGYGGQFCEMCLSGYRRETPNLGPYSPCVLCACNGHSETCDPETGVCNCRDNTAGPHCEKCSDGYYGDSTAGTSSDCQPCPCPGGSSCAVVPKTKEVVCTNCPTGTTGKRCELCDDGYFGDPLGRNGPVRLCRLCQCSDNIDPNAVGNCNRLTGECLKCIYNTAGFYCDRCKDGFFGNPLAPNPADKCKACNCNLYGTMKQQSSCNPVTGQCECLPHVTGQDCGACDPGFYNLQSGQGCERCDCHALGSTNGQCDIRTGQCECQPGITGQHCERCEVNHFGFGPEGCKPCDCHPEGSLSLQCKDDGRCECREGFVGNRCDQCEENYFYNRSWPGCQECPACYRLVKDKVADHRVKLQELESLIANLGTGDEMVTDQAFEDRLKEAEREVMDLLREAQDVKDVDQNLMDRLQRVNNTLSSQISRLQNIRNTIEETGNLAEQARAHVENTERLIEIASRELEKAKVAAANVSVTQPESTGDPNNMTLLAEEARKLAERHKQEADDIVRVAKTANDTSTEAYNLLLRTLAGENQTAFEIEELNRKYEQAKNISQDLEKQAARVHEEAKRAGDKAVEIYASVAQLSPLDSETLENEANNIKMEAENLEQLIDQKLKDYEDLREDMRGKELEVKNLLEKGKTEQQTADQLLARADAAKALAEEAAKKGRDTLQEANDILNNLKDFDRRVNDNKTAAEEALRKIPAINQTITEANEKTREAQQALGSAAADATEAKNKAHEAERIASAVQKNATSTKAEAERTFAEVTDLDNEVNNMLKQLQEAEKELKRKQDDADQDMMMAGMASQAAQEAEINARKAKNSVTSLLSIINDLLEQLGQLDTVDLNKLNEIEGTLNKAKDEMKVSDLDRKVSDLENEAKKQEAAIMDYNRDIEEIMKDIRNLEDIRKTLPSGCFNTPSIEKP

binding result [2]	binding result [3]	binding result [4]	binding result [5]	binding result [6]	further results	Binder
–	–	–	–	–	binding result [1]: no binding	B1
binds	binds	no binding (tested: 5 ug/ml)	binds	–	–	B2
binds	binds	no binding (tested: 5 ug/ml)	binds	–	–	B3
–	–	–	–	binds	–	B4
–	–	–	–	binds	binding result [7]: binds	B5
